From US20210130436A1 (published 2021)
Numbering of substitutions follows the chain as printed. Numbers in names are those of the source.

T1: CD96 (UniProt P40200 22-585, limits assumed)
T1 construct: whole, on cells
T1 sequence (looked up): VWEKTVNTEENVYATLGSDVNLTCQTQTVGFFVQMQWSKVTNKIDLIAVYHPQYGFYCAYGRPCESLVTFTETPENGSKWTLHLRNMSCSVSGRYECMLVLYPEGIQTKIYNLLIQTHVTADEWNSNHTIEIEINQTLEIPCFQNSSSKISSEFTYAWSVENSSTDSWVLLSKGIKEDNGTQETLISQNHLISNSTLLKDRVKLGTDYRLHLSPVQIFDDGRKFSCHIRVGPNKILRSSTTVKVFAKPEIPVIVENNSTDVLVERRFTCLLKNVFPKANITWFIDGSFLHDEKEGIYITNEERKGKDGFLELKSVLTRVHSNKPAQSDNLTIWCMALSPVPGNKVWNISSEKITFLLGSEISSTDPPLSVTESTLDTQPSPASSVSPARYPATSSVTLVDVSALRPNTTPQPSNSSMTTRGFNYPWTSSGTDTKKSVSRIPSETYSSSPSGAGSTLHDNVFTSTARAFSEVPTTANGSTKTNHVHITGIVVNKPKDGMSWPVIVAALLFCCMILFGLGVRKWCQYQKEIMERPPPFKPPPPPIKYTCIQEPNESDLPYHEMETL

T2: CD226 (Homo sapiens (Human), UniProt Q15762 19-336)
T2 sequence: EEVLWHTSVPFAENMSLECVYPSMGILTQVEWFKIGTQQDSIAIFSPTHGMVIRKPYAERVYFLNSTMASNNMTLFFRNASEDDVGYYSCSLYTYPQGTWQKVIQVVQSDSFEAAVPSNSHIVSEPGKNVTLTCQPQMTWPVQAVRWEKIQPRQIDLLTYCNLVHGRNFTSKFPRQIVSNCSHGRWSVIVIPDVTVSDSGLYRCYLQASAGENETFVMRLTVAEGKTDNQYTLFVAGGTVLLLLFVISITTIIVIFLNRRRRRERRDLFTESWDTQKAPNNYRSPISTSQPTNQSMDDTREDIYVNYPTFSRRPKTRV

B1: WT CD80 ECD-Fc H22.6 (Fc fusion, not shown: a dimerising Fc or GST)
chain: VIHVTKEVKEVATLSCGHNVSVEELAQTRIYWQKEKKMVLTMMSGDMNIWPEYKNRTIFDITNNLSIVILALRPSDEGTYECVVLKYEKDAFKREHLAEVTLSVKADFPTPSISDFEIPTSNIRRIICSTSGGFPEPHLSWLENGEELNAINTTVSQDPETELYAVSSKLDFNMTTNHSFMCLIKYGHLRVNQTFNWNTTKQEHFPDN
notes: Control; The token H22.6 is not explained
B2: variant CD80 IgV-Fc M47L (Fc fusion, not shown: small tags and cut ends; a dimerising Fc or GST)
chain: VIHVTKEVKEVATLSCGHNVSVEELAQTRIYWQKEKKMVLTMMSGDLNIWPEYKNRTIFDITNNLSIVILALRPSDEGTYECVVLKYEKDAFKREHLAEVTLSVKAD
B3: variant CD80 IgV-Fc D46V/M47L/V68M (Fc fusion, not shown: small tags and cut ends; a dimerising Fc or GST)
chain: B2 chain with D46V, V68M
B4: variant CD80 IgV-Fc L85Q (Fc fusion, not shown: small tags and cut ends; a dimerising Fc or GST)
chain: B2 chain with L47M, L85Q
B5: variant CD80 IgV-Fc D46V/M47L/L85Q (Fc fusion, not shown: small tags and cut ends; a dimerising Fc or GST)
chain: B2 chain with D46V, L85Q
B6: variant CD80 IgV-Fc D46V/L85Q (Fc fusion, not shown: small tags and cut ends; a dimerising Fc or GST)
chain: B2 chain with D46V, L47M, L85Q
B7: variant CD80 IgV-Fc M47L/L85Q (Fc fusion, not shown: small tags and cut ends; a dimerising Fc or GST)
chain: B2 chain with L85Q
B8: variant CD80 IgV-Fc E35D/D46V/M47L (Fc fusion, not shown: small tags and cut ends; a dimerising Fc or GST)
chain: B2 chain with E35D, D46V
B9: variant CD80 IgV-Fc D46V/V68M/L85Q (Fc fusion, not shown: small tags and cut ends; a dimerising Fc or GST)
chain: B2 chain with D46V, L47M, V68M, L85Q
B10: variant CD80 IgV-Fc E35D/D46V (Fc fusion, not shown: small tags and cut ends; a dimerising Fc or GST)
chain: B2 chain with E35D, D46V, L47M
B11: variant CD80 IgV-Fc D46V/M47L/V68M/L85Q (Fc fusion, not shown: small tags and cut ends; a dimerising Fc or GST)
chain: B2 chain with D46V, V68M, L85Q
B12: variant CD80 IgV-Fc E35D/D46V/M47L/V68M (Fc fusion, not shown: small tags and cut ends; a dimerising Fc or GST)
chain: B2 chain with E35D, D46V, V68M
B13: variant CD80 IgV-Fc E35D/D46V/V68M (Fc fusion, not shown: small tags and cut ends; a dimerising Fc or GST)
chain: B2 chain with E35D, D46V, L47M, V68M
B14: variant CD80 IgV-Fc E35D/D46V/V68M/L85Q (Fc fusion, not shown: small tags and cut ends; a dimerising Fc or GST)
chain: B2 chain with E35D, D46V, L47M, V68M, L85Q
B15: variant CD80 IgV-Fc D46V/M47L (Fc fusion, not shown: small tags and cut ends; a dimerising Fc or GST)
chain: B2 chain with D46V
B16: variant CD155 IgV-Fc L104E (Fc fusion, not shown: a dimerising Fc or GST)
chain: WPPPGTGDVVVQAPTQVPGFLGDSVTLPCYLQVPNMEVTHVSQLTWARHGESGSMAVFHQTQGPSYSESKRLEFVAARLGAELRNASLRMFGLRVEDEGNYTCEFVTFPQGSRSVDIWLRVL
B17: variant CD155 IgV-Fc S42G (Fc fusion, not shown: a dimerising Fc or GST)
chain: B16 chain with S42G, E104L
B18: variant CD155 IgV-Fc L104Q (Fc fusion, not shown: a dimerising Fc or GST)
chain: B16 chain with E104Q
B19: variant CD155 IgV-Fc S42C/S52L (Fc fusion, not shown: a dimerising Fc or GST)
chain: B16 chain with S42C, S52L, E104L
B20: variant CD155 IgV-Fc S52M/V57L (Fc fusion, not shown: a dimerising Fc or GST)
chain: B16 chain with S52M, V57L, E104L
B21: variant CD80 IgV-Fc E35D/M47I/K54R/L85E (Fc fusion, not shown: a dimerising Fc or GST)
chain: B2 chain with E35D, L47I, K54R, L85E
B22: variant CD80 IgV-Fc Q33K/E35D/M47V/K89E/K93R (Fc fusion, not shown: a dimerising Fc or GST)
chain: B2 chain with Q33K, E35D, L47V, K89E, K93R
B23: variant CD80 IgV-Fc Q27H/E35D/M47L/L85Q/R94Q/E95K (Fc fusion, not shown: a dimerising Fc or GST)
chain: B2 chain with Q27H, E35D, L85Q, R94Q, E95K
B24: variant CD80 IgV-Fc Q33R/E35D/K37E/M47V/L85Q (Fc fusion, not shown: a dimerising Fc or GST)
chain: B2 chain with Q33R, E35D, K37E, L47V, L85Q
B25: variant CD80 IgV-Fc S15P/Q33L/E35D/M47L/L85Q (Fc fusion, not shown: a dimerising Fc or GST)
chain: B2 chain with S15P, Q33L, E35D, L85Q

Each binder was assayed against T3, CD28 on Jurkat/IL2 reporter cells (human, UniProt P10747 19-220) (assay: flow cytometry, Jurkat cells (CD28)).
T3 construct: whole, on cells; Endogenous CD28 of Jurkat cells; also called Jurkats (CD28)

Binder	MFI at 33.3 nM [MFI]
B1	43

What follows are binders tested against T4, CD28 endogenously expressed on Jurkat/IL2 reporter cells (human, UniProt P10747 19-220) (assay: flow cytometry, Jurkat cells (CD28)).
T4 construct: also called Jurkats (CD28)

Binder	MFI at 33.3 nM [MFI]
B2	309
B3	2180
B4	35
B5	567
B6	131
B7	88.1

What follows are binders tested against T5, human PD-L1, full-length, on CHO cells (human, UniProt Q9NZQ7 19-290) (assay: flow cytometry; PD-L1 MFI over CD28 MFI).
T5 construct: also called huPD-L1; CD274
T5 sequence (Q9NZQ7 19-290): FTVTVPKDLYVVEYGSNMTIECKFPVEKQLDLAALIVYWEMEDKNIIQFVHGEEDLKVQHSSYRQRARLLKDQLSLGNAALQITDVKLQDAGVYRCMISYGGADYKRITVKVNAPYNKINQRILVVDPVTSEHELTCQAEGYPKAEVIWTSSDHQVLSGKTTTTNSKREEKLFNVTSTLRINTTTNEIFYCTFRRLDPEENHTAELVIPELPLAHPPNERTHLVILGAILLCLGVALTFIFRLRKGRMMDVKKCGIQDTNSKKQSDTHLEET

Binder	Ratio of PDL1:CD28 [ratio]
B2	6.1
B3	12.8
B5	10.5
B6	16.8

What follows are binders tested against T6, human CTLA4 (CTLA-4), full-length, on CHO cells (human, UniProt P16410 36-223) (assay: flow cytometry, CHO cells stably expressing CTLA4).
T6 construct: also called huCTLA4
T6 sequence (P16410 36-223): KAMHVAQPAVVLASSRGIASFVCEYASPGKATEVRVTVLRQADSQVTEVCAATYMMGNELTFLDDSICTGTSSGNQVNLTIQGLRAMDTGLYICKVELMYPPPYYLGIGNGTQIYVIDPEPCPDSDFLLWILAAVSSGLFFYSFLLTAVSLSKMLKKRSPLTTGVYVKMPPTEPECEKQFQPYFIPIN

Binder	MFI at 33.3 nM [MFI]
B2	30800
B3	34700
B8	45000
B9	7570
B10	50100
B4	3000
B11	32500
B12	34300
B5	40200
B6	41900
B13	31200
B14	32200
B15	49700

These binders were tested against T5, human PD-L1, full-length, on CHO cells (assay: flow cytometry, CHO cells stably expressing PD-L1).

Binder	MFI at 33.3 nM [MFI]
B2	1900
B3	28000
B8	7990
B9	4170
B10	3970
B4	97
B11	29700
B12	29300
B5	5980
B6	2200
B13	26100
B14	23600
B7	5800
B15	3900

The binders below were run against T1, CD96 (assay: flow cytometry, Fc fusion at 100 nM, CD96-transfected cells).

Binder	MFI at 100 nM [MFI]
B16	1560
B17	1700
B18	1540
B19	1480
B20	1860

The binders below were run against T2, CD226 (assay: flow cytometry, Fc fusion at 100 nM, CD226-transfected cells).

Binder	MFI at 100 nM [MFI]
B17	2450
B18	3790
B19	2150
B20	2430

These binders were tested against T7, human PD-L1 (full-length, expressed on CHO cells) (human, UniProt Q9NZQ7 19-290) (assay: flow cytometry, CHO cells expressing huPD-L1, PE anti-human Fc).
T7 construct: also called huPD-L1; CD274
T7 sequence (Q9NZQ7 19-290): as the sequence (Q9NZQ7 19-290) above

Binder	MFI at 33.3 nM [MFI]
B21	36900
B22	39100
B23	36100
B24	44400

Each binder was assayed against T6, human CTLA4 (CTLA-4), full-length, on … (assay: flow cytometry, CHO/CTLA4 cells; MFI relative to WT CD80 ECD-Fc).

Binder	Fold change to WT CD80 [fold]
B2	0.8
B3	0.9
B5	1
B6	1

Each binder was assayed against T5, human PD-L1, full-length, on CHO cells (assay: flow cytometry, CHO/PD-L1 cells; MFI relative to WT CD80 ECD-Fc).

Binder	Fold change to WT CD80 [fold]
B2	14.8
B3	219
B5	46.7
B6	17.2

The binders below were run against T4, CD28 endogenously expressed on … (assay: flow cytometry, Jurkat cells (CD28); MFI relative to WT CD80 ECD-Fc).

Binder	Fold change to WT CD80 [fold]
B2	0.4
B3	3.1
B5	0.8
B6	0.2

What follows are binders tested against T8, CD28 (endogenously expressed on Jurkat/IL2 reporter cells) (human, UniProt P10747 19-220) (assay: flow cytometry, Jurkat/IL2 reporter cells (endogenous CD28), PE anti-human Fc).
T8 construct: Endogenous CD28 of Jurkat cells; also called human CD28

Binder	MFI at 33.3 nM [MFI]
B22	276
B25	266
B23	282
B24	258
